Results on 1 substance are retold here after article PMC5776092.

The test addresses cysteine deficient variant of the human neuropeptide Y receptor type 2 (Y2R), refolded and reconstituted into DMPC/DHPC-c7 bicelles (human) (UniProt P49146).

Consider “pre-assembled Gαi1β1γ1 heterotrimer (from UniProt P10824 1-354; P62871 1-340; P02698 1-74) (complex)”, for which the apparent GTPγS binding rate k of Gαi1 (intrinsic W211 tryptophan fluorescence, nucleotide exchange), Y2R in isotropic bicelles activated with 10 fold excess of NPY, 16°C turned out to be 0.06 s⁻¹ and the apparent GTPγS binding rate k of Gαi1 (intrinsic W211 tryptophan fluorescence, nucleotide exchange), Y2R in non-isotropic bicelles activated with 10 fold excess of NPY, 16°C was determined as 0.045 s⁻¹.
